Source: US11376333B2, “mTG substrates for covalent conjugation of compounds” (COVALAB, priority 2013, dated 2022)

Tests used:
[1] = biological target: T1, microbial transglutaminase (mTG) (Streptomyces mobaraensis, UniProt P81453); experiment: mTG incorporation of biot-cad into coated BSA-peptide conjugate, with free-peptide competition; assay type: biochemical; conditions: 150 μM free peptide, mTG 100 ng/ml
T1 construct: purchased Covalab, France opr 0054
T1 sequence (P81453 77-407): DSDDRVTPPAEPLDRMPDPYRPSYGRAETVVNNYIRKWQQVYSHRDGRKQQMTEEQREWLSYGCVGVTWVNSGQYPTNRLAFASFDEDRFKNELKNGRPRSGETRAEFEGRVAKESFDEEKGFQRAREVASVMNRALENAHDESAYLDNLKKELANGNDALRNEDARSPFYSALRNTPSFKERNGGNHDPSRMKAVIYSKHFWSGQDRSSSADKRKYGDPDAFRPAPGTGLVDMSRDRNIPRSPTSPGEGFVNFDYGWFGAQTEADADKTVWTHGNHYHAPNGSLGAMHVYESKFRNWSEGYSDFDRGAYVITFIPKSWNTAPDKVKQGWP
Description: 2 mg of each peptide was dissolved in 1 ml of deionized water and 150 nmoles were mixed with 0.5 mg BSA solubilized in 50 mM bicarbonate buffer pH9.5. After shaking, glutaraldehyde was added at a final concentration of 0.25% (v/v). The mixtures were kept at room temperature during 16 hrs under gentle shaking. At the end of this incubation time, sodium borohydride was added at a final concentration of 10 mg/ml to stabilize the cross-linking between BSA and the peptides. After 2 hours each mixture of peptide-BSA was dialyzed separately in PBS to remove any free peptides.
High binding 96 wells-microtiter plates (Costar) were used to immobilize BSA-peptide and to human IgG-peptide conjugates prepared as described in M-4 and M-5. For these experiments, conjugates were prepared at 50 μg/ml in 50 mM sodium carbonate buffer pH 9 and 100 μl of each solution was dispensed in the number of wells needed for the experiment. After overnight incubation at 4° C., the plates were washed extensively with Tris Buffer Saline (TBS) and were ready to be used for TG activity.
The same procedure was used as described in B-II-1
In the literature its well known that many proteins are not substrate of transglutaminase even if many glutamine residues are present in their structures (Gorman J J, Folk J E. J Biol Chem. 1984 Jul. 25; 259(14):9007-10). […]

[2] = biological target: T2, human transglutaminase 2 (hTG2) (Homo sapiens, UniProt P21980); experiment: TG2-mediated incorporation of biotin-cadaverine into peptides coupled on Covabtest plate; assay type: biochemical; conditions: same conditions as for mTG
T2 construct: purchased Covalab, France opr 0027
T2 sequence (P21980 1-687): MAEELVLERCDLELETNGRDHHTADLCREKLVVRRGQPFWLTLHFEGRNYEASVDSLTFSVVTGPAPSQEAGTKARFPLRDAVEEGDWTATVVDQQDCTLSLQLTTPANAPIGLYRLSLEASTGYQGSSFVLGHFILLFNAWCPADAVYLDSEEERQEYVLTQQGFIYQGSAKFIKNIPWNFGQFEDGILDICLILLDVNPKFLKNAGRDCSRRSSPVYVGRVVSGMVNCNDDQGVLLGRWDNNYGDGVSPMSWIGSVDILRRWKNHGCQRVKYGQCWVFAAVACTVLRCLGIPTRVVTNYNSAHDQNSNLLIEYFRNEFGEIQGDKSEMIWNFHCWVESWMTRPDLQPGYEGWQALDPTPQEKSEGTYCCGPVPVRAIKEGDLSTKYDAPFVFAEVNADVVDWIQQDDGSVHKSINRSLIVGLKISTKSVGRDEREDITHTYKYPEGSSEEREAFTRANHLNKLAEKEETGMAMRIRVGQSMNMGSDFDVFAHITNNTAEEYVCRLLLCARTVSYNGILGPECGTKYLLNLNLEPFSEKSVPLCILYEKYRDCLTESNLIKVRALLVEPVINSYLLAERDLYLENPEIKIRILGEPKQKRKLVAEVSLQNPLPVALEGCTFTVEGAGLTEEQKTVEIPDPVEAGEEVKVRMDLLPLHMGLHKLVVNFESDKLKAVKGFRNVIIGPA
Description: The coupling method was previously described by the Applicant (V. Thomas et al, 2004) and also in the corresponding data sheet of CovAbtest-Plate™ which is commercially available from Covalab (Ref #opr0004). Briefly, in separate tubes a solution mixture containing 150 μM of each peptide dissolved in 10 mM phosphate buffer pH5, 5 mM EDAC and 5 mM NHS was incubated for 30 min under gentle shaking. The resulting activated NHS-carboxyl C-terminal moiety of each peptide (15 nmoles) was used to be conjugated in each well of CovAbtest-Plate™ previously deprotonated during 15 min with 150 μl 0.6% sodium bicarbonate per well. The microtiter plate was then incubated during 2 hrs at room temperature and washed extensively with Tris Buffer Saline.
For this experiment we used the same procedures described by V Thomas et all (2004) and also in the Covalab's commercialized kit (opr0033). Briefly the Lyophilized transglutaminase was reconstituted in 40 mM tris buffer pH 8 and 50 μl of each mTG at 200 ng/ml and at 40 ng/ml were added in the wells containing 50 μl of biotin-X-cadaverine. The enzymatic mixture was incubated for 15 min at room temperature under gentle shaking. […] Absorbances at 450 nm were measured using a microplate reader (Multiskan, Labsystems, Helsinki, Finland). […]

## HDLMWPDVYSQH (Peptide HH12Q11)
[1]
  effect of added free peptide on mTG reactivity on BSA-HH12Q11: decreased
[2]
  reactivity as substrate for TG2 incorporation of biot-cad: less reactivity with TG2 than mTG
